# In the DeepSol protein solubility set:
# Experiment: soluble on expression in E. coli; label from the status in PepcDB or PDB records
row,Sequence,soluble on expression in E. coli
1,MITSECIIYLARKYQCKFILLGRSAILATEPEWSIGCVDESELKKRIMQHLIEQQEKPTPIKVQNLYKKICQSREIYQTLADIKQGGGEAEYLSIDVTDTSALKSALAPVVARLGRITGIIHGAGNLADKLIEHKTEQDFQTVYNVKIEGLHSLINCVDIAQLKFIALFSSFVSFYGNVGQSDYSLANEILNKYAYLLQRKYPECHVVSFGWGPWDGGMVTPQLKQLFTQKNIKLIPLRVGAEILAEELTQDHTKVPQLIIMSQGISVLPKAFSPEKHSYRLYRRLTLQGNPFVYDHVIGGNAVLPAVCALAWMTNICEQFYPGYHFLSCQKYKVLKGIVFDDNLANLYCLDLTEVEKSEEEIQLEALIWSETPKGIPLYHYRALINISQKSHAQQALTFEDFNYYESSLSLNPYQEGILFHHQRFRGIQKILEITANKLIASCFLPEISPAEQGQFLTQSFNPYTADMFFQCLLIWVRQTYGLGSLPLELTALKQFYTLPFNQEFLINLSIEEQSETKVVASAIAHDIQGKVYLEATNMQVTSSARLNQLFLNNTVASKNTVCMLEHHHHHH,not soluble
2,MIVDSISSSTASTSSSSPTRGTPIRKSLQCAVCGDVALGKHYGVNACNGCKGFFRRSIWKNRTYACRHGGKCLVAKEQRNACRSCRLTRCLDVGMNPRAVQGDTVEDPEWDEEAMPETLSISTQTDALKVKKKSHTSLFTLDIKKEQIIDNLRAIYARTDPEEFWKLTYPGTYDFRYAFHNTKVVSPRTPLTPTAERIATLNDVVADFRRAFVLFVDILKSIDQLRDVQEDDKMKIAKSRFAAFYWWLCSTWSAKAGCNGVCYSNGSYHPASISDMPKSEGKHGVRIDYSGVSQKSLENLVEPLRRMELSDEERIVGAVMVILADPVPNVSTKTEKILAEARDFYLELLGYCIKLPEEQQGIRVSTMVLLLASIMELVHLTTDNIQLSDVLHVIDLGDWSQELRDHRYRRQF,not soluble
3,MIVLIDGPSGSGKTTFAGFLGEILGMRIVHFDDLYPGWHGLAAGVKIVTALLEGAGGYHRWDWANNVMGPWVEVPERNLIIEGVGSLAPSVVRAARQHGPVLTMLFDGPEQMRRSRALARDPFYEPWWEMWAEQEARHFATVETPDVTRGYP,not soluble
4,MIVMTQVRLSELVAPSFYEIHNDIKHNRYTHYWLKGGRGSTKSSFVSIEIILGVMKDPNANAVALRKVKETIKDSVFEQLVWAIEKLKVTEYWEIKHNPMELTYLPTGQKILFRGADKPRKIKSIKVSRGYVKFIWYEEVDEFLGMEEIRIINQSLMRGGEQFVVFYTYNPPNRVNAWVNEEILIDRPDRKVHHSTYLTVPRDWLGEQFFIEAEHLKKVNEKAYRHEYLGEVTGTGGEVFTNVKARKINDEEIKAFDRIKRGLDFGYAVDPAAYIVCHFDKTRRRLYIFHEIFQVGLSNRKLAELIKKENKSNKLVVADSAEPKSIAELRGYGINIRGAKKGPDSVEYGIKFLQDLEEIIIDPERCPNTLREFVNYELEKDKDGNFKAEFPDKNNHTIDAVRYALEDDMRTGGLSILK,soluble
5,MIVNAFYNEKGVGDTLLIETGEVTFENREWERRGDVARIFDRETKQVAGFNIFNSSKYFDITANGKVDLTEELVALMNQVIEKAGFEPEIVADLTPKFVVGYVESKEKHPNADKLNVCQINVGGEVLQIVCGAPNIDAGQKVVVAKIGAVMPSGLIIKPSNLRGEDSFGMVCAARELAIPNAPTEKGILVLEDSATPGEEFPVNFLEHHHHHH,not soluble
6,MIYIGLPQWSHPKWVRLGITSLEEYARHFNCVEGNTTLYALPKPEVVLRWREQTTDDFRFCFKFPATISHQAALRHCDDLVTEFLTRMSPLAPRIGQYWLQLPATFGPRELPALWHFLDSLPGEFNYGVEVRHPQFFAKGEEEQTLNRGLHQRGVNQVILDSRPVHAARPHSEAIRDAQRKKPKVPVHAVLTATNPLIRFIGSDDMTQNRELFQVWLQKLAQWHQTTTPYLFLHTPDIAQAPELVHTLWEDLRKTLPEIGAVPAIPQQSSLF,soluble
7,MIYKNRLLKTIRYNVKATTISPLAIRDDEDNLKIDQLTGKVYIPGSSVAGAFRNYYENYIDKNSNENFNELFGGQKTGMSQIVFYDGYLVNDYVKEMISSRPGIKMDLKRMTVEVSDDAKKSGKKFKRRFLNEGLTFEFVFELNNYEDDAGKFEEKQRKFEELLKAFSIGDISLGSNKMIGYGRFRVDSISKSVFDFTNINDLLKYMLMETDSTEITQDILGREQETSKVRFKIKGKTVTPLLVKDETVRLSNESDGINIKDSRGNYIIPGSSIKGVIRSRAERLHRTFPCIGEEILTNIFGIESKKDDDGHISRLSCFDAVVKNPNKGIYNKIKIDYFTGGVMQGALMNDEVVMGDVEIECTFNTSGLNDYKREIGLLLLVLRDLCKEDLSIGSGYAVGRGYIKAETLELYDGEKLVLDFKSPNREVLKRFDSYISSLMNVG,soluble
